Experimental data reported in patent US20110230406A1 (ADVANCED TECHNOLOGIES AND REGENERATIVE MEDICINE, published 2011).
No end group written: not given here.

Columns and labels:
[1] = target: T1, rhBMP-2 (R&D Systems, Item number 355-BM/CF) (human, UniProt P12643 283-396); experiment: SPR (Biacore S51), rhBMP-2 on CM4 chip, peptide at 5 micromolar, 1:1 Langmuir fit, N=3
T1 construct: Coupled to a CM4 chip by EDC/NHS in SPR; also called human recombinant BMP-2
Experimental: Peptide binding affinity to BMP-2 was evaluated for SEQ ID NO: 3 and SEQ ID NO: 6 by surface plasmon resonance measurements. Measurements were performed on a Biacore S51 (Biacore Life Sciences, Piscataway, N.J.) instrument using a CM4 Series-S sensor chip. rhBMP-2 (R&D Systems, Minneapolis, Minn., Item number 355-BM/CF) was immobilized on the sensor chip using 1-ethyl-3[3-dimethylaminopropyl]carbodiimide hydrochloride (EDC)/N-hydroxysuccinimide (NHS) coupling chemistry. […] Data were fit to a 1:1 Langmuir binding model using Biacore Analysis Software (Biacore Life Sciences, Piscataway, N.J.).
The data shown in Table 2 are average equilibrium dissociation constants with an N value of 3.

[2] = target: T2, human serum albumin (human, UniProt P02768 25-609); experiment: phage ELISA titration, HSA-coated wells, HRP anti-M13 antibody, luminescence
T2 construct: Cross-reactivity control coated at 5 micrograms/mL; also called HSA
Experimental: (§1) 96-well black ELISA plates were coated with streptavidin (Rows A through D), hIgG (Rows E and F) and human serum albumin (Rows G and H), at a concentration of 5 micrograms/mL in PBS. Plates were incubated overnight at 4° C. Plates were washed 3 times with TBST using a plate washer. To the streptavidin-coated wells in rows C and D, 100 microliters of a 4 micrograms/mL solution of biotinylated-BMP-2 (R&D Systems, Minneapolis, Minn., Item number 355-BM/CF), was introduced and allowed to sit at room temperature for 30 minutes. To all other wells, 100 microliters of PBS was introduced. The plates were again washed 3 times with TBST using the plate washer. The wells were then blocked with 250 microliters of a 3% dehydrated milk suspension in TBST and allowed to sit at room temperature for a minimum of 1 hour. Using phage concentrations determined by the phage titrations, dilutions of the phage stock solutions were performed in a separate 96-well plate to result in phage concentrations of 10¹⁰, 10⁹, 10⁸, 10⁷, 10⁶ and 10⁵ phage/well. After blocking, the ELISA plate was washed 3 times with TBST and 100 microliters of the phage dilutions were introduced to the respective ELISA plates and allowed to sit at room temperature for a minimum of 1 hour. […] The luminescence was read using a luminometer set with a gain of 150.

[3] = target: T3, human IgG (human); experiment: phage ELISA titration, hIgG-coated wells, HRP anti-M13 antibody, luminescence
T3 construct: Cross-reactivity control coated at 5 micrograms/mL; also called hIgG
Experimental: as §1

[4] = target: T4, biotinylated BMP-2 (R&D Systems, Item number 355-BM/CF) (human, UniProt P12643 283-396, biotinylated (sites not given)); experiment: phage ELISA titration, biotinylated BMP-2 captured on streptavidin-coated wells, HRP anti-M13 antibody, luminescence
T4 construct: Bought protein, biotinylated, captured on streptavidin plates (phage ELISA) or streptavidin donor beads (ALPHA); also called bone morphogenic protein-2
Experimental: (§2) 96-well black ELISA plates were coated with streptavidin (Rows A through D), hIgG (Rows E and F) and human serum albumin (Rows G and H), at a concentration of 5 micrograms/mL in PBS. Plates were incubated overnight at 4° C. Plates were washed 3 times with TBST using a plate washer. To the streptavidin-coated wells in rows C and D, 100 microliters of a 4 micrograms/mL solution of biotinylated-BMP-2 (R&D Systems, Minneapolis, Minn., Item number 355-BM/CF), was introduced and allowed to sit at room temperature for 30 minutes. To all other wells, 100 microliters of PBS was introduced. The plates were again washed 3 times with TBST using the plate washer. The wells were then blocked with 250 microliters of a 3% dehydrated milk suspension in TBST and allowed to sit at room temperature for a minimum of 1 hour. Using phage concentrations determined by the phage titrations, dilutions of the phage stock solutions were performed in a separate 96-well plate to result in phage concentrations of 10¹⁰, 10⁹, 10⁸, 10⁷, 10⁶ and 10⁵ phage/well. After blocking, the ELISA plate was washed 3 times with TBST and 100 microliters of the phage dilutions were introduced to the respective ELISA plates and allowed to sit at room temperature for a minimum of 1 hour. The ELISA plate was again washed 3 times with TBST using the plate washer and 100 microliters of an HRP-conjugated Anti-M13 Phage Mab (1:5000 dilution in PBS) was introduced to each well. The plates were allowed to sit at room temperature for 1 hour after which time the plates were washed 3 times with TBST. Next, a POD HRP-substrate was introduced to each well. The luminescence was read using a luminometer set with a gain of 150.

[5] = target: T2, human serum albumin; experiment: phage ELISA, HSA-coated wells, HRP anti-M13 antibody, luminescence
Experimental: as §2

[6] = target: Streptavidin; experiment: phage ELISA titration, streptavidin-coated wells without BMP-2, HRP anti-M13 antibody, luminescence
Experimental: as §1

[7] = target: T4, biotinylated BMP-2 (R&D Systems, Item …); experiment: ALPHA, biotinylated BMP-2 at 0.825 micrograms/mL, Ni-acceptor and streptavidin-donor beads
Experimental: Diluted stock of biotinylated BMP-2 (R&D Systems, Minneapolis, Minn., Item number 355-BM/CF) at 3.3 micrograms/ml was prepared in 2× assay buffer (PBS, 0.01% Tween-80, 0.05% BSA). Chemically synthesized peptides having SEQ ID NO: 1, SEQ ID NO: 2, SEQ ID NO: 3, and SEQ ID NO: 6 were prepared using standard, automated Fluorenylmethyloxycarbonyl (Fmoc) solid phase peptide synthesis procedures. Each peptide solution for the assay was prepared from a 100 microgram/mL stock solution. The stock solution was serially diluted in ½ log steps in assay buffer resulting in peptide concentrations of 100, 33.3, 11.1, 3.70, 1.23, 0.41, 0.14, 0.046, 0.015, 0.0051, 0.0017 and 0.00056 micrograms/mL. Subsequently, serially diluted peptides were added to the corresponding wells containing the 10 microliters of the 3.3 microgram/mL solution of biotinylated BMP-2. Final assay test concentration for biotinylated BMP-2 was 0.825 micrograms/mL. Final peptide concentrations were 25, 8.3, 2.8, 0.93, 0.31, 0.10, 0.03, 0.01, 0.003, 0.001, 0.0003 and 0.0001 micrograms/mL. Next, Nickel (Ni)-acceptor and streptavidin (SA)-donor beads (Perkin Elmer, Waltham, Mass., Item number 6760619M) were diluted 1:100 in assay buffer prior to adding 20 microliters to each test well. […] The emission of the plate was read using a dual wavelength fluorometer (Perkin Elmer (Waltham, Mass.) Envision 2101 Multilabel Reader).

T4 sequence (P12643 283-396 limits assumed): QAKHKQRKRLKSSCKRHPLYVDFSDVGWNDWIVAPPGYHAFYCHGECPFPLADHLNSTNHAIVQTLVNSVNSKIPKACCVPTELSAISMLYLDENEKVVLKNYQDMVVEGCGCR
T1 sequence (P12643 283-396 limits assumed): as above

B1: chemically synthesized peptide having SEQ ID NO: 6 (peptide)
peptide: AGRDSFNLLTSSPLPST
notes: Fmoc solid phase synthesis; used in ALPHA, SPR and the alkaline phosphatase assay
- Kd [1]: 303 nM

B2: phage displaying the peptide of SEQ ID NO: 4 on the pIX minor coat protein (peptide)
peptide: AGFRWWHTQPAHTLSYT
modifications: also: displayed on phage pIX minor coat protein, junction not given here
notes: not shown: pIX minor coat protein of the phage that carries the peptide
- binding result [2]: binds
- EC50 (read off the curve) [3]: ~1e+08 phage/well
- binding result [4]: binds

B3: phage displaying the peptide of SEQ ID NO: 3 on the pIX minor coat protein (peptide)
peptide: AGYTSFALLKSAESTLP
modifications: also: displayed on phage pIX coat protein fusion
notes: as for B2
- binding result [5]: no binding (tested: 10^9 phage/mL)
- binding result [6]: no binding (tested: 1.00E+10 phage/well)
- EC50 (read off the curve) [4]: ~1e+08 phage/well

B4: chemically synthesized peptide having SEQ ID NO: 3 (peptide)
peptide: AGYTSFALLKSAESTLP
notes: Fmoc solid phase synthesis; used in ALPHA and SPR
- Kd [1]: 398 nM

Binder: AGLPLQSMSRLSYDSLS (Fmoc solid phase synthesis) [chemically synthesized peptide having SEQ ID NO: 1]
- binding result [7]: binds

Binder: AGPPGPYIAASAFLALK (Fmoc solid phase synthesis) [chemically synthesized peptide having SEQ ID NO: 2]
- binding result [7]: binds
